Reference: patent publication US20170121416A1 (AbbVie / Abbott, published 2017)
Like-named read-outs stand apart in the source and are kept apart here.

B1: SC10.17 (antibody, V domains shown)
VH: DVQLVESGGGLVQPGGSRKLSCAASGFTFSSYGMHWVRQAPETGLEWVAYITTRSSTIYYAATVKGRFTISRDNARNTLFLQMTSLRSEDTAMYYCTREPLTGYYAMDYWGQGTSVTVSS
VL: DVLMTQTPLSLPVSLGDQASISCRSSQSIVHSDGNTYLEWYLRKPGQSPRLLIYKVSNRFSGVPDRFSGSGSGTDFTLKISRVEAEDLGVYYCFQGSHAPWTFGGGTKLEIK
notes: murine monoclonal antibody from hybridoma; also called murine SC10.17; mAb SC10.17
B2: SC10.163 (antibody, V domains shown)
VH: EVQLQQSGPELVKPGDSVKMSCKASGNTVTNYYMDWVKQSHGKSLEWIGYIYANNGGTSYNQKFKGKATLTVDKSSSTAYMEIHSLTSEDSAVYYCAIYYRYEFAYWGQGTLVTVSA
VL: DIVMTQAAFSNPVTLGTSASISCRSSKSLLHSNGITYLYWYLQKPGQSPQLLIYQMSNLASGVPDRFSNSGSGTDFTLRISRVEAEDVGVYYCAQNLELPWTFGGGTKLEIK
B3: SC10.38 (antibody, V domains shown)
VH: QVQLQQSGAELMKTGASVKISCKATGYTFSSYWIEWVKQRPGHGLEWIGEILPGSGKTNYNENFKGKATFTADTSSNTAYMQLSSLTSEDSVVYYCARRGAYYGNFDYWGQGTTLTVSS
VL: DIQMNQSPSSLSASLGDTITITCHVSQNINVWLTWYQQKPGNIPKLLLYKASNLQTGVPSRFSGSGSGTGFTLTISSLQPEDIATYYCQQGQSYPFTFGSGTK
B4: SC10.35 (antibody, V domains shown)
VH: SDVQLQESGPGLVKPSQSLSLTCTVTDYSITSDYAWNWIRQFPGNNLEWMGNIGYSGDTSYNPSLKSRISITRDTSKNQFFLQLNSVTTEDSATYYCARSSLGPFDYWGQGTALTVSS
VL: QIVLTQSPAIMSASPGERVTLTCSASSSVSSSFLYWYQQKSGSSPKLWIYSTSTLASGVPARFSGSGSGTSYSLTISSMEAEDAASYFCHQWSSYPWTFGGGTKLEIK
B5: SC10.36 (antibody, V domains shown)
VH: QVQLQQSGNELVRPGSAVKISCKASGYAFSSYWMNWVKQRPGQGLEWIGQIYPGDDDSNYNGKFKGKATLTADKSSSSAYMHLSSLTSEDSAVYFCARGFATPTMDYWGQGTSVTVSS
VL: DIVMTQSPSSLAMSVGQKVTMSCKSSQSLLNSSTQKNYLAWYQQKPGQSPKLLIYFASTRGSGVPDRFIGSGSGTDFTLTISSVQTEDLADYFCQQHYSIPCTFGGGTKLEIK
B6: SC10.178 (antibody, V domains shown)
VH: QILLVQSGPELKKPGETVKISCKANYTFTDYGMHWVKQAPGKGLKWMGWINPKTGVASYADDFKGRFAFSLETSASTAYLQINNLENEDTSIYFCARFFDYWGQGTTLTVSS
VL: DIVLTQSPLSLLVSLGDQASISCRSSQSLVHSNGNTYLHWYLQKPGQSPNLLIFKVSNRFSGVPDRFSGSGSGTDFTLRISRVEAEDLGVYFCSQTTHVWTFGGGTKLEIK
B7: SC10.75 (antibody, V domains shown)
VH: QVQLKESGPGLVAPSQSLSITCTVTGFSLSRYSVHWIRQPPGKGLEWLGMIWGGGSTDYNSALKSRLSINKDNSKSQVFLKMNSLQTVDTAMYYCARTQFYYGHDGGYAMDYWGQGTSVTVSS
VL: DIVMSQSPSSLAVSVGEKVTMSCKSSQSLLYSNNQKNYLAWYQQKPGQSPKLLIYWASSRESGVPERFTGSGSGTDFTLTISSVKAEDLAVYYCQQYYSSPYTFGGGTKLK
notes: murine mAb; variable regions only
B8: SC10.168 (antibody, V domains shown)
VH: SDVQLQESGPGLVKPSQSLSVTCTVTDYSLTSGYYWNWIRQFPGNKLEWMAYIHSSGSTHYNPSLKSRISVTRDTSKNQFFLQLNSVTTEDTATYYCARDGAYYSSWFPYWGQGTLVTVSA
VL: DIVMTQSHKLMSASVGDRVSITCKASQDVGTAVAWYQQKPGRSPKLLIYWASNRHTGVPDRFTGSGSGTDFTLTISNVQSEDLADYFCQQFGSYPYTFGGGTKLEIKR

How the values were obtained:
[1] = target: T1, human CD324 on cells (MCF7, BR22, NTX tumor cells, 293-hCD324) (human, UniProt P12830 155-882); assay: cell-based or functional assay
T1 sequence: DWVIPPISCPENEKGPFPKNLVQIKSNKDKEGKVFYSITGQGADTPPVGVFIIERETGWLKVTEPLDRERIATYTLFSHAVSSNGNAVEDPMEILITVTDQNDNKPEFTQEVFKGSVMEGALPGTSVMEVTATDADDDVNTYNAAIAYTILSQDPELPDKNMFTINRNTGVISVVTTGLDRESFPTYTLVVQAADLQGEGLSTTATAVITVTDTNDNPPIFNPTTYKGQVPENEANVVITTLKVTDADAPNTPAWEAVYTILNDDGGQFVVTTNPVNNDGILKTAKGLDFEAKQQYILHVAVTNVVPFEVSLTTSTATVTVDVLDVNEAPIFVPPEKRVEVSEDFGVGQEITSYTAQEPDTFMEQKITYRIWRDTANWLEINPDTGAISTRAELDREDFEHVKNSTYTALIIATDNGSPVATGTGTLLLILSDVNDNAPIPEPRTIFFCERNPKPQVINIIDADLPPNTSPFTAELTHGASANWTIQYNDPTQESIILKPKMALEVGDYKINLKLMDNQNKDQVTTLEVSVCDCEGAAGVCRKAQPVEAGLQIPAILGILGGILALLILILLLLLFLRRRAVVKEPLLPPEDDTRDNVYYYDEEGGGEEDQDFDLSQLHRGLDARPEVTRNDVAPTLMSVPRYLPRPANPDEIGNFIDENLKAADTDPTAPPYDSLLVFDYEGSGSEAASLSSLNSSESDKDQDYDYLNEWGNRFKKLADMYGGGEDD

[2] = target: T2, human CD324-His recombinant protein (Sino Biological, Inc.) (human, UniProt P12830 155-709); assay: SPR (Biacore), concentration series 25, 12.5 and 6.25 nM, 1:1 Langmuir binding model; murine parent antibody
T2 construct: bought soluble protein; The antigen of the Biacore experiment is only called human CD324 antigen; also called hCD324-His; human CD324 antigen; not shown: His tag
T2 sequence: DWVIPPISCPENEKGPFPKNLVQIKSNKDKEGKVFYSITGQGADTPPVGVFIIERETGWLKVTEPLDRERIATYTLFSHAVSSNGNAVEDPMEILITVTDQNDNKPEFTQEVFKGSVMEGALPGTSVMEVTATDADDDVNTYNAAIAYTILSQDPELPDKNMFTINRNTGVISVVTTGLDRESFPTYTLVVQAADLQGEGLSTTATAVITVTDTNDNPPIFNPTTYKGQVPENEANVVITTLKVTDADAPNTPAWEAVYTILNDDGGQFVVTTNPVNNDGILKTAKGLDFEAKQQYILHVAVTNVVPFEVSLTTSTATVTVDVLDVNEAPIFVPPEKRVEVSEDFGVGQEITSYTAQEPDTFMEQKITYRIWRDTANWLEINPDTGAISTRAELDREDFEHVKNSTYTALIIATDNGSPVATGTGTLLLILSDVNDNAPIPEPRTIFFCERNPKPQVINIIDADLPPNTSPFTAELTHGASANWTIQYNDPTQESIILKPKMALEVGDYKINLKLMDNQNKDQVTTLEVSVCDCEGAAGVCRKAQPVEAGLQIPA

[3] = target: T1, human CD324 on cells (MCF7, BR22, NTX …); assay: cell-based or functional assay; remark: listed apart in the source
[4] = target: T1, human CD324 on cells (MCF7, BR22, NTX …); assay: cell-based or functional assay; remark: listed apart in the source
[5] = target: T1, human CD324 on cells (MCF7, BR22, NTX …); assay: cell-based or functional assay; remark: listed apart in the source
[6] = target: T3, mouse CD324 (Sino Biologics) (mouse, UniProt P09803 157-709, limits assumed); assay: direct ELISA on plate-coated mouse CD324 (Example 7, paragraph 375; paragraph 370 names ForteBio)
T3 construct: bought recombinant protein coated on the ELISA plate; also called murine CD324; mouse homolog
T3 sequence (looked up): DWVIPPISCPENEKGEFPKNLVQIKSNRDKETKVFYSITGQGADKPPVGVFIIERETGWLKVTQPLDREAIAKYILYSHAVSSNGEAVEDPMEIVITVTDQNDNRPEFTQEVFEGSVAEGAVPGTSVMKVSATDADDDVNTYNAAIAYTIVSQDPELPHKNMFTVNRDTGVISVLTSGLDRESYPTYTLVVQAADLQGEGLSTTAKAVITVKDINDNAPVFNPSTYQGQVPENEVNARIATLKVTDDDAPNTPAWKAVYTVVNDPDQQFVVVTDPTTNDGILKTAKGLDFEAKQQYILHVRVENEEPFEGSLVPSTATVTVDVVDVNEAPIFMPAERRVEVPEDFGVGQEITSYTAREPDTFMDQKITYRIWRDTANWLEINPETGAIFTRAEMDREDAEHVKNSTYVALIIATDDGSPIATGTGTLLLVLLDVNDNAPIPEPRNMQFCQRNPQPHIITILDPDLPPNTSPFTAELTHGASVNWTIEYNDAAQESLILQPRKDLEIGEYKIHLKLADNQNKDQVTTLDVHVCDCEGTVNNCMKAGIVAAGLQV

[7] = target: T1, human CD324 on cells (MCF7, BR22, NTX …); assay: cell-based or functional assay; remark: listed apart in the source
[8] = target: T1, human CD324 on cells (MCF7, BR22, NTX …); assay: cell-based or functional assay; remark: listed apart in the source

| Binder | EC50 (MCF7, Fab-saporin killing) [1] | Kd [2] | EC50 of killing of MCF7 cells, Fab-saporin assay [3] | Percent live cells remaining at 10pM (MCF7, Fab-saporin) [4] | EC50 (MCF7, Fab-saporin killing) [5] | binding result [6] | Normalized RLU at 10pM (MCF7, Fab-saporin) [7] | Normalized RLU at 100pM (MCF7, Fab-saporin) [7] | EC50 (read off the curve) [8] |
| --- | --- | --- | --- | --- | --- | --- | --- | --- | --- |
| B1 | 0.13 pM | 2000 pM | 1.2 pM | 32% | 1.22 pM | no binding |  |  |  |
| B2 |  |  |  |  |  |  | 91.5 | 90.3 |  |
| B3 |  |  |  |  |  |  | 102 | 106 |  |
| B4 | 0.71 pM |  |  |  |  |  | 37.2 | 19.4 | ~0.6 pM |
| B5 |  |  |  |  |  |  | 40.7 | 21.2 |  |
| B6 | 3.1 pM |  |  | 68% |  |  | 68 | 38.1 |  |
| B7 |  |  |  | 101% |  | no binding | 101 | 98.8 |  |
| B8 |  |  |  |  |  |  | 64.8 | 34 |  |
